The values that follow come from publication PMC7111318.

This experiment addresses Echo 6 virus full particle (strain SJZ-366) (Echovirus 6 strain SJZ-366). Briefly: SPR. Background: Surface plasmon resonance follows binding to a sensor surface in real time, without labels.

By Kd is commonly meant the constant that tells how readily two partners part at equilibrium.

Turning to “Human CD55 soluble protein (extracellular domain) (from UniProt P08174-1 35-285) (domain or fragment)”, the Kd was 375 nM.

In the case of “Human FcRn soluble protein (FCGRT extracellular domain + β2 m) (from UniProt P61769 21-119) (complex)”, the Kd amounted to 242 nM.
